Reference: patent publication EP4611795A1

How the values were obtained:
[1] = molecular target: human IgG (purified human IgG; IgG in human sera) (human); experiment: cell-based or functional assay
[2] = molecular target: human IgM (purified human IgM, MilliporeSigma; IgM in human sera) (human); experiment: cell-based or functional assay
Sequence of human IgM (purified human IgM, MilliporeSigma; IgM in human sera) (human) (heavy, as listed by the source): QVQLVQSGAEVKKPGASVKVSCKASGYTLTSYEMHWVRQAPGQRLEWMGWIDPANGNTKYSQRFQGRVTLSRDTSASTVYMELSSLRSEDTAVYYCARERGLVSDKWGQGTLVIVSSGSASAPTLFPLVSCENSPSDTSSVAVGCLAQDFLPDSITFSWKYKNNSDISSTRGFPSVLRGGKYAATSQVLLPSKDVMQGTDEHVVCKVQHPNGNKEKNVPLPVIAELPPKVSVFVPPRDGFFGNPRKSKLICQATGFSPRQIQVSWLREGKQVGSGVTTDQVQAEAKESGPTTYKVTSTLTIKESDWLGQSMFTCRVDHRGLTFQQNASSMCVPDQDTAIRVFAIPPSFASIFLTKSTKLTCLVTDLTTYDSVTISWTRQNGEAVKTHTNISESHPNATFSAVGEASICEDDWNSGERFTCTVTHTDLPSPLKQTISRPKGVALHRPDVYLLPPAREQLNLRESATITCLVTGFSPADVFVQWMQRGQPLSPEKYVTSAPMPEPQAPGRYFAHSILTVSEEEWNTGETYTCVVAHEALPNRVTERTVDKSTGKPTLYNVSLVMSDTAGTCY

“IceMG (recombinant His-tagged fusion protein of IceM and IdeZ proteolytic domains with the rigid linker) (enzyme)” gave an EC50 of IceMG enzymatic activity on IgG in human sera [1] of 4.7 nM and an EC50 of IceMG enzymatic activity on IgM in human sera [2] of 0.07 nM.
